The text below walks through data of patent publication US20070060518A1 (MANNKIND, published 2007).

Numbered stars: 1 amine (or outer) side, 2 acyl side, 3 side chain; on linkers, the order of the positions; unused ones are H or OH. Square brackets hold non-standard residues; d marks the D form. Ends that are not written are not given here. O‑methyltyrosine = COc1ccc(C[C@H](N[*:1])C(=O)[*:2])cc1; Phe(4-F) = N[C@@H](Cc1ccc(F)cc1)C(=O)O; Phg = N[C@H](C(=O)O)c1ccccc1; Nle = CCCC[C@H](N)C(=O)O; Nva = CCC[C@H](N)C(=O)O; Abu = CC[C@H](N)C(=O)O A value given as a limit tells only on which side of the number the result lay.

The labels stand for the following.
B1: Prame 425-433 (L426Nva, L433Nle) (peptide)
peptide: S[Nva]LQHLIG[Nle]
notes: also called S{Nva}LQHLIG{Nle}; L426Nva L433Nle analog

In the first experiment the target is T1, HLA-A*0201 class I monomer on avidin-coated plates (iTopia Epitope Discovery System) (human).
T1 construct: Bought kit (Beckman Coulter); also called A0201 restricted MHC Class 1 molecules; MHC monomer
Kind of experiment: iTopia off-rate assay (FIG. 21).
Method: (§1) Avidin-coated microtiter plates containing class I monomer loaded with a so-called placeholder peptide were used to evaluate peptide binding, affinity and off-rate. […] Assay buffers, anti-MHC-FITC mAb and beta2-microglobulin and control peptides were also supplied with the kits. Binding Assay:
(§2) The plates were then incubated on the allele-specific monomer plates at 37° C. The plates were measured at multiple time points (0, 0.5, 1, 1.5, 2, 4, 6 and 8 hrs) for relative fluorescence intensity. The time required for 50% of the peptide to dissociate from the MHC monomer is defined as the T1/2 value (hrs).
On to A[Nva]PSIPVHPV [PSMA288-297 analog with Ala at P1, Nva at P2 and Val at PΩ], for which the binding result was “binds”.

Consider A[Nva]WSIPVHPI [PSMA288-297 analog with Ala at P1, Nva at P2 and Trp at P3], for which the binding result is given as “binds”. On the same count and under the same terms, the entry for AVPSIPVHPV [PSMA288-297 analog with Ala at P1, Val at P2 and Val at PΩ] is “binds”; for ALWSIPVHPV [PSMA288-297 analog with Ala at P1, Trp at P3 and Val at PΩ] it is “binds”; for AVPSIPVHP[Nva] [PSMA288-297 analog with Ala at P1, Val at P2 and Nva at PΩ] it is “binds”. With ALWSIPVHP[Nva] [PSMA288-297 analog with Ala at P1, Trp at P3 and Nva at PΩ], the binding result is given as “binds”. Same read-out and setting: the entry for A[Nle]WSIPVHPI [PSMA288-297 analog with Ala at P1, Nle at P2 and Trp at P3] is “binds”.

The next experiment has as its target T1, HLA-A*0201 class I monomer on …. Kind of experiment: iTopia affinity and off-rate assays (FIG. 28).
Method: as §1, §2
(§3) In some cases, the reported values are the average of two determinations.
Regarding T[Nva]LQHLIG[Nle] (also called T{Nva}LQHLIG{Nle}) [PRAME425-433 S425T L426Nva L433Nle analog], the binding result is reported as “binds”.

The target is the same in a further experiment. Kind of experiment: iTopia off-rate assay (FIG. 20).
Method: as §1, §2
Turning to XLPSIPVHPX (aminobutyric acid (Abu) at P1; norvaline (Nva) at PΩ (P10)) [PSMA288-297 analog with Abu at P1 and Nva at PΩ], the binding result is listed as “binds”.

G[Nva]PSIPVHPV [PSMA288-297 analog with Nva at P2 and Val at PΩ]: the binding result is reported as “binds”. For ALPSIPVHPV [PSMA288-297 analog with Ala at P1 and Val at PΩ], the binding result was “binds”.

With GXPSIPVHPV (norleucine (Nle) at P2) [PSMA288-297 analog with Nle at P2 and Val at PΩ], the binding result is listed as “binds”. Same read-out and setting: the entry for [Abu]LPSIPVHPV [PSMA288-297 analog with Abu at P1 and Val at PΩ] is “binds”; for ALPSIPVHP[Nva] [PSMA288-297 analog with Ala at P1 and Nva at PΩ] it is “binds”. The same measure, in the same setting: the entry for GVPSIPVHP[Nva] [PSMA288-297 analog with Val at P2 and Nva at PΩ] is “binds”.

For another experiment the target is unchanged. Kind of experiment: iTopia assays (FIG. 21).
Regarding G[Nva]WSIPVHPV [PSMA288-297 Nva/W/V analog (Nva at P2, Trp at P3, Val at PΩ)], the binding result is listed as “binds”.

For another experiment the target is unchanged. Put plainly: iTopia affinity assay (FIG. 26).
From the text: as §1, §3
On to SLLQHLIGA [PRAME425-433 analog with Ala at PΩ], for which the “fold change of ED50 against the native peptide” value is greater than 10 fold. With KLLQHLIGL (also called Lys P1 analog) [PRAME425-433 analog with Lys at P1], the “fold change of ED50 against the native peptide” value is roughly 6 fold.

The next experiment has the same target. Kind of experiment: iTopia affinity assay (FIG. 19).
From the text: as §1
Regarding G[Nva]PSIPVHPI [PSMA288-297 analog with Nva at P2], the binding result is reported as “binds”. The same measure, in the same setting: the entry for GLPSIPVHP[Nle] [PSMA288-297 analog with Nle at PΩ] is “binds”.

The next experiment has the same target. Kind of experiment: iTopia assays (FIG. 20).
Turning to GLWSIPVHPV [PSMA288-297 analog with Trp at P3 and Val at PΩ], the binding result was “binds”.

Consider GLWSIPVHP[Nva] [PSMA288-297 analog with Trp at P3 and Nva at PΩ], for which the binding result is on record as “binds”.

The target is the same in another experiment. Put plainly: iTopia affinity and off-rate assays (FIG. 19).
Method: as §1, §2
Regarding GMPSIPVHPI [PSMA288-297 analog with Met at P2], the binding result is reported as “binds”.

Turning to GLPSIPVHPX (norvaline (Nva) at PΩ (P10), also called I297Nva) [PSMA288-297 analog with Nva at PΩ], the binding result was “binds”.

The target is the same in a further experiment. Kind of experiment: iTopia binding assay (FIG. 26).
From the text: as §1
(§4) This assay measures the ability of individual peptides to bind HLA molecules under standardized optimal binding conditions. Monomer-coated plates were first stripped, releasing the placeholder peptide and leaving only the MHC heavy chain bound to the plate. Test peptides were then introduced under optimal folding conditions, along with the anti-MHC-FITC mAb. […] The anti-MHC-FITC mAb binds preferentially to a refolded MHC complex. Therefore, the fluorescence intensity resulting from each peptide was related to the peptide's ability to form complex with MHC molecule. Each peptide's binding was evaluated relative to the positive control peptide provided in the kit, and the results were expressed “% binding”.
As for SLLQHLIGI [PRAME425-433 analog with Ile at PΩ], the binding result is on record as “binds”. On to SVLQHLIGL [PRAME425-433 analog with Val at P2], for which the binding result was “binds”.

Regarding SLLQHLIGV [PRAME425-433 analog with Val at PΩ], the binding result is reported as “binds”.

The next experiment addresses T2, HLA-A*0201 on T2 cells (human).
T2 construct: whole, on cells; also called HLA-A2
Put plainly: T2 cell stability assay, flow cytometry. For orientation: Flow cytometry measures light scatter and fluorescence of single cells or particles in a stream.
With KISEKIFYV [SSX2 41-49 (A42I)], the “Stability (T1/2)” value is 22.5 h. The same measure, in the same setting: the figure for KMSEKIFYV [SSX2 41-49 (A42M)] is 22.5 h.

The next experiment addresses T2, HLA-A*0201 on T2 cells. Put plainly: T2 cell binding assay, flow cytometry.
Broadly, the EC50 is the concentration that produces a half-maximal response. Take [O‑methyltyrosine]ASEKIFYV [SSX2 41-49 (K41(O-methyl Tyr))]: the EC50 was 19.5 µM and the “Relative affinity (1/RA)” value is 0.8.

For YASEKIFYV [SSX2 41-49 (K41Y)], the midpoint of the response, the EC50, lay at 8.74 µM and the “Relative affinity (1/RA)” value stood at 1.7. For FASEKIFYV [SSX2 41-49 (K41F)], in that order: 9.55 µM and 1.5. The matching figures for [Phg]ASEKIFYV [SSX2 41-49 (K41(Phg))]: 5.83 µM and 2.5.

In another experiment the target is T1, HLA-A*0201 class I monomer on …. Kind of experiment: iTopia binding and affinity assays (FIG. 26).
From the text: as §1, §4
For SILQHLIGL [PRAME425-433 analog with Ile at P2], the binding result is recorded as “binds”. Still for that read-out and setting: to YLLQHLIGL [PRAME425-433 analog with Tyr at P1] belongs “binds”.

For SMLQHLIGL [PRAME425-433 analog with Met at P2], the binding result is “binds”. Same read-out and setting: to TLLQHLIGL [PRAME425-433 analog with Thr at P1] belongs “binds”.

For the next experiment the target is unchanged. Put plainly: iTopia off-rate assay.
Method: as §2
For the molecule S[Nva]LMWITQV (also called SNvaLMWITQV) [NY-ESO-1 157-165 (L158Nva, C165V)], the “Half-Life (T1/2)” value stood at 17 h.

As to YMDGTMSQV [Tyrosinase 369-377], the “Half-Life (T1/2)” value worked out at 14.4 h. On the same count and under the same terms, the figure for B1 is 16.9 h; for YMDGTMSQX (norvaline (Nva) at position 377 (P9)) [Tyrosinase 369-377 (V377Nva)] it is 14.7 h.

A further experiment concerns the target T2, HLA-A*0201 on T2 cells. Put plainly: T2 cell stability assay, flow cytometry. This is another data set of the same source.
Take [Phe(4-F)]ASEKIFYV [SSX2 41-49 (K41(Phe-4F))]: the “Stability (T1/2)” value was greater than 24 h.

[O‑methyltyrosine]ASEKIFYV [SSX2 41-49 (K41(O-methyl Tyr))]: the “Stability (T1/2)” value came out at 20 h. Same read-out and setting: the figure for YASEKIFYV [SSX2 41-49 (K41Y)] is greater than 24 h; for FASEKIFYV [SSX2 41-49 (K41F)] it is greater than 24 h; for [Phg]ASEKIFYV [SSX2 41-49 (K41(Phg))] it is greater than 24 h.

In the next experiment the target is T2, HLA-A*0201 on T2 cells. Kind of experiment: T2 cell binding assay, flow cytometry. The source holds these as a separate data set.
On to KASEKIFYI [SSX2 41-49 (V49I)], for which the “Relative affinity (1/RA)” value was 1.

With KVSEKIFYI [SSX2 41-49 (A42V, V49I)], the “Relative affinity (1/RA)” value was found to be 1.1. Still for that read-out and setting: the figure for KLSEKIFYI [SSX2 41-49 (A42L, V49I)] is 2.6.

A further experiment concerns the target T2, HLA-A*0201 on T2 cells. Kind of experiment: T2 cell binding assay, flow cytometry. The source holds these as a separate data set.
Consider KISEKIFYV [SSX2 41-49 (A42I)], for which the EC50 is 8.8 µM and the “Relative affinity (1/RA)” value is 1.7. The matching figures for KMSEKIFYV [SSX2 41-49 (A42M)]: 8.8 µM and 1.7.
